Test results reported in doi:10.1101/2021.08.20.457142.

B1: MKK7 D-site peptide (second D-site) / JNK1 alpha1 (MAPK8 isoform 1) L198A, full length (parent complex)
chain 1: SQPQRPRPTLQLPLANEAFEQP
chain 2: MSRSKRDNNFYSVEIGDSTFTVLKRYQNLKPIGSGAQGIVCAAYDAILERNVAIKKLSRPFQNQTHAKRAYRELVLMKCVNHKNIIGLLNVFTPQKSLEEFQDVYIVMELMDANLCQVIQMELDHERMSYLLYQMLCGIKHLHSAGIIHRDLKPSNIVVKSDCTLKILDFGLARTAGTSFMMTPYVVTRYYRAPEVIAGMGYKENVDLWSVGCIMGEMVCHKILFPGRDYIDQWNKVIEQLGTPCPEFMKKLQPTVRTYVENRPKYAGYSFEKLFPDVLFPADSEHNKLKASQARDLLSKMLVIDASKRISVDEALQHPYINVWYDPSEAEAPPPKIPDKQLDEREHTIEEWKELIYKEVMDLEERTKNGVIRGQPSPLAQVQQ

Variants of: B1

Variant	screen value
chain 1 P3R	1.66 Z-score of the enrichment rate within one screen of 711 sequences
chain 1 P3C	1.42 Z-score of the enrichment rate within one screen of 711 sequences
chain 1 P3E	1.21 Z-score of the enrichment rate within one screen of 711 sequences
chain 1 P3A	1.42 Z-score of the enrichment rate within one screen of 711 sequences
chain 1 P3K	1.42 Z-score of the enrichment rate within one screen of 711 sequences
chain 1 P3H	1.27 Z-score of the enrichment rate within one screen of 711 sequences
chain 1 P3T	1.7 Z-score of the enrichment rate within one screen of 711 sequences
chain 1 P3L	1.07 Z-score of the enrichment rate within one screen of 711 sequences
chain 1 P3Y	1.41 Z-score of the enrichment rate within one screen of 711 sequences
chain 1 P3G	1.4 Z-score of the enrichment rate within one screen of 711 sequences
chain 1 T9A, chain 1 N16A	0.774 Z-score of the enrichment rate within one screen of 711 sequences
chain 1 L12Y	-0.861 Z-score of the enrichment rate within one screen of 711 sequences
chain 1 L12K	-0.431 Z-score of the enrichment rate within one screen of 711 sequences
chain 1 L12W	0.774 Z-score of the enrichment rate within one screen of 711 sequences
chain 1 L12R	-0.521 Z-score of the enrichment rate within one screen of 711 sequences
chain 1 L12T	-0.304 Z-score of the enrichment rate within one screen of 711 sequences
chain 1 L12M	0.011 Z-score of the enrichment rate within one screen of 711 sequences
chain 1 L12H	-0.33 Z-score of the enrichment rate within one screen of 711 sequences
chain 1 L12F	0.226 Z-score of the enrichment rate within one screen of 711 sequences
chain 1 L12S	-0.194 Z-score of the enrichment rate within one screen of 711 sequences
chain 1 L12D	-0.686 Z-score of the enrichment rate within one screen of 711 sequences
chain 1 P3S, chain 1 Q4K	1.43 Z-score of the enrichment rate within one screen of 711 sequences
chain 1 P8R	0.631 Z-score of the enrichment rate within one screen of 711 sequences
chain 1 P8T	0.655 Z-score of the enrichment rate within one screen of 711 sequences
chain 1 P8D	0.613 Z-score of the enrichment rate within one screen of 711 sequences

Variant	screen value
chain 1 P8S	0.564 Z-score of the enrichment rate within one screen of 711 sequences
chain 1 P8H	0.889 Z-score of the enrichment rate within one screen of 711 sequences
chain 1 P8G	0.304 Z-score of the enrichment rate within one screen of 711 sequences
chain 1 P8Y	0.574 Z-score of the enrichment rate within one screen of 711 sequences
chain 1 L12A, chain 1 N16A	-0.599 Z-score of the enrichment rate within one screen of 711 sequences
chain 1 L10A, chain 1 L12A	-0.511 Z-score of the enrichment rate within one screen of 711 sequences
chain 1 P13Y	1.41 Z-score of the enrichment rate within one screen of 711 sequences
chain 1 P13T	1.03 Z-score of the enrichment rate within one screen of 711 sequences
chain 1 P13E	1.34 Z-score of the enrichment rate within one screen of 711 sequences
chain 1 P13A	1.14 Z-score of the enrichment rate within one screen of 711 sequences
chain 1 P13F	1.62 Z-score of the enrichment rate within one screen of 711 sequences
chain 1 P13I	0.957 Z-score of the enrichment rate within one screen of 711 sequences
chain 1 P13R	1.24 Z-score of the enrichment rate within one screen of 711 sequences
chain 1 P13W	1.26 Z-score of the enrichment rate within one screen of 711 sequences
chain 1 Q11A, chain 1 L12A	-0.605 Z-score of the enrichment rate within one screen of 711 sequences
chain 1 P3A, chain 1 Q4A	1.61 Z-score of the enrichment rate within one screen of 711 sequences
chain 1 N16D	1.03 Z-score of the enrichment rate within one screen of 711 sequences
chain 1 N16I	1.55 Z-score of the enrichment rate within one screen of 711 sequences
chain 1 N16Y	1.82 Z-score of the enrichment rate within one screen of 711 sequences
chain 1 N16R	1.4 Z-score of the enrichment rate within one screen of 711 sequences
chain 1 N16K	1.7 Z-score of the enrichment rate within one screen of 711 sequences
chain 1 N16M	1.27 Z-score of the enrichment rate within one screen of 711 sequences
chain 1 N16F	1.8 Z-score of the enrichment rate within one screen of 711 sequences
chain 1 Q11A, chain 1 L14A	0.716 Z-score of the enrichment rate within one screen of 711 sequences
chain 1 L10A, chain 1 N16A	-0.696 Z-score of the enrichment rate within one screen of 711 sequences

Variant	screen value
chain 1 Q4A, chain 1 T9A	1.32 Z-score of the enrichment rate within one screen of 711 sequences
chain 1 R7A, chain 1 T9A	0.112 Z-score of the enrichment rate within one screen of 711 sequences
chain 1 P8A, chain 1 L12A	-0.717 Z-score of the enrichment rate within one screen of 711 sequences
chain 1 P6A, chain 1 T9A	1.16 Z-score of the enrichment rate within one screen of 711 sequences
chain 1 L14W	1.36 Z-score of the enrichment rate within one screen of 711 sequences
chain 1 L14N	0.512 Z-score of the enrichment rate within one screen of 711 sequences
chain 1 L14C	1.27 Z-score of the enrichment rate within one screen of 711 sequences
chain 1 L14G	0.653 Z-score of the enrichment rate within one screen of 711 sequences
chain 1 L14Q	0.637 Z-score of the enrichment rate within one screen of 711 sequences
chain 1 L14S	0.942 Z-score of the enrichment rate within one screen of 711 sequences
chain 1 L14V	0.826 Z-score of the enrichment rate within one screen of 711 sequences
chain 1 L14M	0.805 Z-score of the enrichment rate within one screen of 711 sequences
chain 1 L14E	0.365 Z-score of the enrichment rate within one screen of 711 sequences
chain 1 T9A, chain 1 Q11A	1.19 Z-score of the enrichment rate within one screen of 711 sequences
chain 1 P3A, chain 1 L10A	-0.251 Z-score of the enrichment rate within one screen of 711 sequences
chain 1 P6A, chain 1 N16A	1.19 Z-score of the enrichment rate within one screen of 711 sequences
chain 1 R7W	0.391 Z-score of the enrichment rate within one screen of 711 sequences
chain 1 R7C	0.232 Z-score of the enrichment rate within one screen of 711 sequences
chain 1 R7D	-0.584 Z-score of the enrichment rate within one screen of 711 sequences
chain 1 R7Y	0.245 Z-score of the enrichment rate within one screen of 711 sequences
chain 1 R7T	0.638 Z-score of the enrichment rate within one screen of 711 sequences
chain 1 R7S	-0.155 Z-score of the enrichment rate within one screen of 711 sequences
chain 1 R7H	0.435 Z-score of the enrichment rate within one screen of 711 sequences
chain 1 R7A, chain 1 P13A	0.166 Z-score of the enrichment rate within one screen of 711 sequences
chain 1 P13A, chain 1 L14A	0.556 Z-score of the enrichment rate within one screen of 711 sequences
